How the values were obtained:
[1] = target: U2AF65 WT (UniProt P26369 1-475); test: EMSA
[2] = target: U2AF65 E425A (UniProt P26369 1-475, E425A); test: EMSA
U2AF65 E425A, sequence (P26369 whole entry E425A, one chain of several): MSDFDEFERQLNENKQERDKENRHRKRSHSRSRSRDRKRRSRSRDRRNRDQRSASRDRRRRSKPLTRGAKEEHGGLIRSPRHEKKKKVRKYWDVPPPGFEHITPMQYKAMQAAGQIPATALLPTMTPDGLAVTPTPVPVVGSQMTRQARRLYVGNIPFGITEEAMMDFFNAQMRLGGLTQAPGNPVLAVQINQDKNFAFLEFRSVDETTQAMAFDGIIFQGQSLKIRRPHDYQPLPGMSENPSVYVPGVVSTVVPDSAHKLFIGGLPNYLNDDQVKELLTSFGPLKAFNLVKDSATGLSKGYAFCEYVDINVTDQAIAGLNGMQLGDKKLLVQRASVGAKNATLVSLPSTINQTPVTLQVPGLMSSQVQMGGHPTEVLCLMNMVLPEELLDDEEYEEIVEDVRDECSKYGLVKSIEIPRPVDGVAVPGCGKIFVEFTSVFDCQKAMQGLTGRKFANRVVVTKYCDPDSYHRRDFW

U2AF65 WT, sequence (P26369 whole entry, one chain of several): as the sequence (P26369 whole entry E425A, one chain of several) above, with A425E counted along it

Binder	binding result [1]	binding result [2]
CCUGCUUUUUUCCCUUUUAAGGCCUCGAUCCA (ssRNA) [U2 LPL 3' splice site]	binds	binds
CUUAACUCCUCUCUACAGU (ssRNA) [U12 Scn8a 3' splice site]	no binding	no binding

Source: article PMC9186393
